Publication PMC7193532 (Acta Crystallographica. Section D, Structural Biology, 2020)

Experiments:
Experiment in all cases: SPR
ohmyungsamycin A (OMS-A) = settings: read off a plot
ecumicin (ECU) = settings: read off a plot
rufomycin I (RUF-I) = settings: read off a plot
[1] = biological target: ClpC1-NTD MAFER (Mycobacterium tuberculosis) (UniProt P9WPC9)
[2] = biological target: ClpC1-FL mutant K85A (Mycobacterium tuberculosis) (UniProt P9WPC9)
[3] = biological target: ClpC1-NTD N-terminal mutant MVFER (Mycobacterium tuberculosis) (UniProt P9WPC9)
[4] = biological target: ClpC1-FL mutant L92S/L96P (Mycobacterium tuberculosis) (UniProt P9WPC9)
[5] = biological target: ClpC1-FL mutant V14A (Mycobacterium tuberculosis) (UniProt P9WPC9)
[6] = biological target: ClpC1-FL mutant Q17A (Mycobacterium tuberculosis) (UniProt P9WPC9)
[7] = biological target: ClpC1-NTD N-terminal mutant FER (residues 2-145) (Mycobacterium tuberculosis) (UniProt P9WPC9)

With “ClpC1-NTD (SPR construct, His6-SUMO tag cleaved) (from UniProt P9WPC9) MAF (MAFER: Ala inserted before Phe2)” the Kd (ohmyungsamycin A (OMS-A); parent: est. 400 nM) was 9600 nM and the Kd (ecumicin (ECU); parent: est. 51 nM) was 3800 nM.
With “full-length ClpC1 (ClpC1-FL) (from UniProt P9WPC9) K85A” the Kd (ohmyungsamycin A (OMS-A); parent: est. 350 nM) was 1600 nM, the Kd (rufomycin I (RUF-I); parent: est. 87 nM) was 420 nM and the Kd (ecumicin (ECU); parent: est. 68 nM) was 580 nM.
For “ClpC1-NTD (SPR construct, His6-SUMO tag cleaved) (from UniProt P9WPC9) MVFER (Val inserted before Phe2)”, the Kd (ecumicin (ECU); parent: est. 51 nM) was 4100 nM.
“ClpC1-NTD (SPR construct, His6-SUMO tag cleaved) (from UniProt P9WPC9) MVAFER (ValAla inserted before Phe2)” showed a Kd (rufomycin I (RUF-I); parent: est. 68 nM) of 900 nM.
ecumicin (peptide) showed a Kd [1] of 3500 nM.
For “full-length ClpC1 (ClpC1-FL) (from UniProt P9WPC9) Q17A”, the Kd (ohmyungsamycin A (OMS-A); parent: est. 350 nM) was 1300 nM and the Kd (rufomycin I (RUF-I); parent: est. 87 nM) was 1400 nM.
In the case of rufomycin I (RUF-I) (peptide), the fold reduction in binding affinity against wild type [2] is reported as 5 fold, the fold reduction in binding affinity against wild type [3] is reported as 6 fold and the fold reduction in binding affinity against wild type [4] is reported as 3 fold. For the same substance, the fold reduction in binding affinity against wild type [5] was 8 fold, the fold reduction in binding against wild type [6] was 17 fold and the fold reduction in binding against wild type [7] was 5 fold.
With “ClpC1-NTD (SPR construct, His6-SUMO tag cleaved) (from UniProt P9WPC9) M1del (FER)” the Kd (ohmyungsamycin A (OMS-A); parent: est. 400 nM) was 4900 nM and the Kd (rufomycin I (RUF-I); parent: est. 68 nM) was 360 nM.
With “full-length ClpC1 (ClpC1-FL) (from UniProt P9WPC9) L92S; L96P” the Kd (rufomycin I (RUF-I); parent: est. 87 nM) was 260 nM.
With “ClpC1-NTD (SPR construct, His6-SUMO tag cleaved) (from UniProt P9WPC9) AAFER (Met1Ala mutation and Ala insertion)” the Kd (ohmyungsamycin A (OMS-A); parent: est. 400 nM) was 9200 nM, the Kd (rufomycin I (RUF-I); parent: est. 68 nM) was 1200 nM and the Kd (ecumicin (ECU); parent: est. 51 nM) was 3300 nM.
“full-length ClpC1 (ClpC1-FL) (from UniProt P9WPC9) V14A” showed a Kd (ohmyungsamycin A (OMS-A); parent: est. 350 nM) of 1600 nM and a Kd (rufomycin I (RUF-I); parent: est. 87 nM) of 630 nM.
